In publication PMC2936520:

Target: OsAP2-39 (OsNUE39) (Oryza sativa) (UniProt Q7XPL6)
Experiment: EMSA
Conditions: Invitrogen EMSA kit E33075 per manufacturer; 30 ng protein with 0-400 ng DNA; 4-20% TBE native gel, 200 V, 45 min; buffer, salt, pH and temperature not stated

Chain of OsAP2-39 (OsNUE39) (Oryza sativa) (Q7XPL6 entry or part of it): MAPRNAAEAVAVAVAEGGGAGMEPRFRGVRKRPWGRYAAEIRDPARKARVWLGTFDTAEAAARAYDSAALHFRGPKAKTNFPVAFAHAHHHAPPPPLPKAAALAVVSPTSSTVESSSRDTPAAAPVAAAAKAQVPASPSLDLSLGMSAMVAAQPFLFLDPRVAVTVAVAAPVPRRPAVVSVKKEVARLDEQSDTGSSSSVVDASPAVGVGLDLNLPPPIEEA

AGTGTTCTGTTCCCCCGGGGAGATAAACCCCCCCTCCTTGGCAACGATACTACCAAGGTTTCTCATCACCAAGATTGTTTGCATGGGACACAGTAACAAACACCGCAGCCGCCGGCGCCGCAGACATT (double strand) [OsNCED-1 promoter GCC-box fragment]
binding: binds
